Laboratory results taken from PMC11417369, “DNA sequence and chromatin differentiate sequence-specific transcription factor binding in the human malaria parasite Plasmodium falciparum”.

T1: AP2-G D1 (Plasmodium falciparum, UniProt Q8I5I9 2123-2245)
T1 sequence: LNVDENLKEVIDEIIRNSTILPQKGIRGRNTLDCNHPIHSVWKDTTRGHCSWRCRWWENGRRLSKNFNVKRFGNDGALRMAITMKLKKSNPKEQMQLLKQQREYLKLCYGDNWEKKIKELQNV

T2: HDP1 homeodomain-like (Plasmodium falciparum, UniProt Q8IKH4 2990-3078)
T2 sequence: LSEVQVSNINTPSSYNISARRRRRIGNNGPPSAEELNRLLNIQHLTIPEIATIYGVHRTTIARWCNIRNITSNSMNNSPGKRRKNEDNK

T3: SIP2 D1 (Plasmodium falciparum, UniProt C6KSN9 177-235)
T3 sequence: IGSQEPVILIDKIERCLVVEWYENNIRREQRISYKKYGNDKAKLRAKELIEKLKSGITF

B1: XGTACX_site5429 (dsDNA)
DNA 1: ATGGACATCTATTGTTGTACACATTTTCCCATAACA
DNA 2: TGTTATGGGAAAATGTGTACAACAATAGATGTCCAT
B2: XGTACX_site6231 (dsDNA)
DNA 1: ATGTTTTATAAAAGGCGTACACATATATTTAAGTAA
DNA 2: TTACTTAAATATATGTGTACGCCTTTTATAAAACAT
B3: XGTACX_site7325 (dsDNA)
DNA 1: TTTTTTTTATTTTGTTGTACGCTTATTTGTATATAT
DNA 2: ATATATACAAATAAGCGTACAACAAAATAAAAAAAA
B4: XGTACX_site7745 (dsDNA)
DNA 1: GGGGACGCGGGTGGGGGTACTCACACTATGCAAAAT
DNA 2: ATTTTGCATAGTGTGAGTACCCCCACCCGCGTCCCC
B5: XGTACX_site3746 (dsDNA)
DNA 1: ATATAAAATATTACGTGTACACATAAATAAAAATAA
DNA 2: TTATTTTTATTTATGTGTACACGTAATATTTTATAT
B6: XGTACX_site3301 (dsDNA)
DNA 1: TTTTCTTTTTGTTCGTGTACACACATGAAATTTATA
DNA 2: TATAAATTTCATGTGTGTACACGAACAAAAAGAAAA
B7: XGTACX_site96 (dsDNA)
DNA 1: TGGAACCATAAAAAGTGTACACATATAAAAAATATG
DNA 2: CATATTTTTTATATGTGTACACTTTTTATGGTTCCA
B8: XGTACX_site7607 (dsDNA)
DNA 1: AATATACAATAAAGGTGTACACATATATGATGCAAG
DNA 2: CTTGCATCATATATGTGTACACCTTTATTGTATATT
B9: XGTACX_site6396 (dsDNA)
DNA 1: CCTATAATTAGGGGTAGTACACAAAAAAAAAAAAAA
DNA 2: TTTTTTTTTTTTTTGTGTACTACCCCTAATTATAGG
B10: XGTACX_site4176 (dsDNA)
DNA 1: ATAAATTTAAATAGGAGTACACAGCTTTATATTTTG
DNA 2: CAAAATATAAAGCTGTGTACTCCTATTTAAATTTAT
B11: XGTACX_site1704 (dsDNA)
DNA 1: CTCGTATATATAATACGTACATATTATATATATATA
DNA 2: TATATATATATAATATGTACGTATTATATATACGAG
B12: XGTACX_site4991 (dsDNA)
DNA 1: TAAAATAATATATGGTGTACACAAAAGTATAAATAA
DNA 2: TTATTTATACTTTTGTGTACACCATATATTATTTTA
B13: XGTACX_site820 (dsDNA)
DNA 1: ACAATTGAAGAAATACGTACATAAAGAAAAACTAGT
DNA 2: ACTAGTTTTTCTTTATGTACGTATTTCTTCAATTGT
B14: XGTACX_site2835 (dsDNA)
DNA 1: GGGGGGATGAGATATTGTACTTTTTAGGAAAGTGTA
DNA 2: TACACTTTCCTAAAAAGTACAATATCTCATCCCCCC
B15: XGTACX_site718 (dsDNA)
DNA 1: GTATTAATTTTAAGGTGTACGCAAAAAATTTAATTT
DNA 2: AAATTAAATTTTTTGCGTACACCTTAAAATTAATAC
B16: GTGCAC_negctrl_site475 (dsDNA)
DNA 1: AGAAATAATATTATTCAAGTATTTATTTAATTTTCA
DNA 2: TGAAAATTAAATAAATACTTGAATAATATTATTTCT
B17: GTGCAC_negctrl_site519 (dsDNA)
DNA 1: AAAATACATATATATATATATAATATTGTTGTTAAA
DNA 2: TTTAACAACAATATTATATATATATATATGTATTTT

Biological target: T1, AP2-G D1
Assay: gcPBM; about 25 ug protein; PBS, 1% milk, 0.2 mg/ml BSA, salmon testes DNA, 0.03% Triton X-100
Conditions: tags: N-terminal GST (pGEX-4T-1), kept; label: surface-attached array probe

Going from B1 to B2, the binding signal rises from 13.1 ln median PBM intensity, better of two orientations to 13.5 ln median PBM intensity, better of two orientations.

Going from B3 to B4, the binding signal rises from 12.8 ln median PBM intensity, better of two orientations to 13 ln median PBM intensity, better of two orientations.

B5 and B6 are the same in binding signal: 13 ln median PBM intensity, better of two orientations for the first, 13 ln median PBM intensity, better of two orientations for the second.

B7 and B8 are the same in binding signal: 12.8 ln median PBM intensity, better of two orientations for the first, 12.8 ln median PBM intensity, better of two orientations for the second.

Compared with B9, B10 is higher in binding signal: 12.8 ln median PBM intensity, better of two orientations for the first, 13 ln median PBM intensity, better of two orientations for the second.

First: B11
Second: B12
The binding signal of the first is lower: 12.9 ln median PBM intensity, better of two orientations for the first, 13.2 ln median PBM intensity, better of two orientations for the second.

Compared with B13, B14 is higher in binding signal: 12.9 ln median PBM intensity, better of two orientations for the first, 13.2 ln median PBM intensity, better of two orientations for the second.

With B15 the binding signal was 13.1 ln median PBM intensity, better of two orientations.

Biological target: AP2-I D3 (Plasmodium falciparum, UniProt Q8IJW6 910-1027)
Assay: as above
Conditions: tags: N-terminal GST (pGEX-4T-1), kept; label: surface-attached array probe

First: B16
Second: B17
The binding signal of the first is lower: 6.75 ln median PBM intensity, better of two orientations for the first, 7.2 ln median PBM intensity, better of two orientations for the second.

Biological target: T2, HDP1 homeodomain-like
Assay: as above
Conditions: tags: N-terminal GST (pGEX-4T-1), kept; chain copies: 2; label: surface-attached array probe

Compared with B16, B17 is higher in binding signal: 5.92 ln median PBM intensity, better of two orientations for the first, 6.31 ln median PBM intensity, better of two orientations for the second.

Biological target: T3, SIP2 D1
Assay: as above
Conditions: tags: N-terminal GST (pGEX-4T-1), kept; label: surface-attached array probe

B16 was tested, and the binding signal was 6.53 ln median PBM intensity, better of two orientations.
